The results in this text go back to PMC6297230, “Structural basis of meiotic telomere attachment to the nuclear envelope by MAJIN-TERB2-TERB1” (Nature Communications, 2018).

Holding throughout (experiment): EMSA
Conditions in all cases: apparent, Hill fit; EMSA: 20 mM Tris pH 8.0, 250 mM KCl, 1 h at 4 °C, 3% glycerol, 0.5% agarose in 0.5x TBE; 25 nM FAM-DNA for Kd (protein as oligomer), 0.3 uM DNA for display

In series [1] the target is MAJIN Core;TERB2 C (human;human) (UniProt Q3KP22+Q8NHR7).
Series [2] concerns the target MAJIN Core;TERB2 full length;TERB1 TRFB (human;human;human) (UniProt Q3KP22+Q8NHR7+Q8NA31).
In series [3] the target is MAJIN dTM;TERB2 C (human;human) (UniProt Q3KP22+Q8NHR7).
Series [4] concerns the target MAJIN dTM;TERB2 C-Tr (human;human) (UniProt Q3KP22+Q8NHR7).

MAJIN Core;TERB2 C (human;human), sequence (Q3KP22 whole entry, chain 1 of 2): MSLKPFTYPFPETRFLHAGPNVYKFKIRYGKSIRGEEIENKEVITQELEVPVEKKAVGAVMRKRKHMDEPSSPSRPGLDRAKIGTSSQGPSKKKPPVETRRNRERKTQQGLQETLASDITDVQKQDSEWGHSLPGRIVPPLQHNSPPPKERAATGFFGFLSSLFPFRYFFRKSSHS
MAJIN Core;TERB2 C (human;human), sequence (Q8NHR7 168-220, chain 2 of 2): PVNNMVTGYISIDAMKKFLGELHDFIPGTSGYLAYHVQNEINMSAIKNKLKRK
MAJIN dTM;TERB2 C-Tr (human;human), sequence (Q3KP22 whole entry, chain 1 of 2): as the sequence (Q3KP22 whole entry, chain 1 of 2) above
MAJIN dTM;TERB2 C-Tr (human;human), sequence (Q8NHR7 168-207, chain 2 of 2): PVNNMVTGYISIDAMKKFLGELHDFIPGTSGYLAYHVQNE
MAJIN dTM;TERB2 C (human;human), sequence (Q3KP22 whole entry, chain 1 of 2): as the sequence (Q3KP22 whole entry, chain 1 of 2) above
MAJIN dTM;TERB2 C (human;human), sequence (Q8NHR7 168-220, chain 2 of 2): as the sequence (Q8NHR7 168-220, chain 2 of 2) above
MAJIN Core;TERB2 full length;TERB1 TRFB (human;human;human), sequence (Q3KP22 whole entry, chain 1 of 3): as the sequence (Q3KP22 whole entry, chain 1 of 2) above
MAJIN Core;TERB2 full length;TERB1 TRFB (human;human;human), sequence (Q8NHR7 whole entry, chain 2 of 3): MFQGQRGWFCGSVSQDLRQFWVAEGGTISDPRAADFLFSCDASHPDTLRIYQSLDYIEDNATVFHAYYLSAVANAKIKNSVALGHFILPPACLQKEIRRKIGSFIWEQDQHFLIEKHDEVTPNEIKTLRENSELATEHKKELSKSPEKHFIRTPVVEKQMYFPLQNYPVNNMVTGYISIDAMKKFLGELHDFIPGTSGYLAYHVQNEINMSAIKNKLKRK
MAJIN Core;TERB2 full length;TERB1 TRFB (human;human;human), sequence (Q8NA31 561-658, chain 3 of 3): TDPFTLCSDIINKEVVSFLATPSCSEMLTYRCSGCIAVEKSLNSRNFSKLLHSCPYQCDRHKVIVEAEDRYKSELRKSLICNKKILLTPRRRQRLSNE

With “AATTCTCATTTTACTTACCGGACGCTATTAGCAGTGGCAGATTGTACTGAGAGTGCACCATATGCGGTGTGAAATACCGCACAGATGCGT [Random ssDNA (90 nt)]”, the Kd in series [1] was determined as 900 nM.

With “TTAGGGTTAGGGTTAGGGTTAGGGTTAGGGTTAGGGTTAGGGTTAGGGTTAGGGCGACGACCCTAACCCTAACCCTAACCCTAACCCTAACCCTAACCCTAACCCTAACCCTAA [Telomeric hairpin DNA (54 bp)]”, in series [1], the Kd stood at 610 nM. As to “TTCCAGGGTTCCATGGAGATAAAGGTCAATAAATTAGAGTTAGAACTAGAAAGTGCCAAACAGAAATTTGGAGAAATCACAGACACCTATCAGAAAGAAATTGAGGACAAAAAGATATCAGAATAATAACCATGGATATCGAATT (double strand) [FAM random dsDNA (145 bp)]”, the Kd in series [1] came to 550 nM; in series [2], 460 nM; in series [3], 120 nM; in series [4], 200 nM. Take “TTTTTTTTTTTTTTTTTTTTTTTTTTTTTTTTTTTTTTTTTTTTTTTTTTTTTTTTTTTTTTTTTTTTTTTTTTTTTTTTTTTTTTTTTTTTTTTTTTTT [Poly(dT) (100 nt)]”: the Kd in series [1] is 510 nM.
